Results as given in the supplement of paper PMC9170038.

System: K4 kissing-loop RNA reporter
Experiment: apparent KD of K4 kissing-loop reporter; higher = weaker reporter binding
Settings: Eterna round: R107
Experimental: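 RNA-MaP round R107: designed RNA switches with theophylline, tryptophan, arginine or FMN aptamers are transcribed on-chip within common flanks. They are titrated with a labelled K4 kissing-loop RNA reporter in RNA-MaP buffer (100 mM Tris pH 7.5, 80 mM KCl, 4 mM MgCl2), without ligand or with the indicated ligand. Median apparent KD per design.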

[1] = input ligand: theophylline 20 uM
[2] = input ligand: tryptophan 2.4 mM
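Note: bound reporter read as fluorescence of individual clusters on recovered sequencing chips by microscopy, with normalized cluster intensities fitted with a binding model.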

| Sequence | apparent KD of K4 kissing-loop reporter (input ligand: FMN 200 uM) | apparent KD of K4 kissing-loop reporter (input ligand: arginine 13.2 mM) | apparent KD of K4 kissing-loop reporter (input ligand: none) | apparent KD of K4 kissing-loop reporter [1] | apparent KD of K4 kissing-loop reporter [2] |
| --- | --- | --- | --- | --- | --- |
| CAACGAGUGAUGGUCGUUGACGGCCAUCCCGAGGAUAUGGGAUUUUCCAGAAGGCGGGAUCGCCCGGAGUGAUGUUCCGUGAUUU [Same State FMN A GF 15] | 73.3 nM | 228 nM | 150 nM | 221 nM | 116 nM |
| CAAGCUCUCCAAGGAUAUGAUAUCGACCCGUCUUAGUGAUGUUAAGGCUGUAGAAAUUCACAUUGAUCAGAAGGUGGUACCCUCC [theeternabot_sameState_KL_FMN_B_8] | 317 nM | 194 nM | 256 nM | 351 nM | 239 nM |
| CACCAUGAAUUCUCUAGGAGUGAUGUUUUUCGAGGACCGGUACGGCCGCCACUCGGACGAGGACCCUGGGAGCGGCGAAGCGGCU [nigmullin] | 235 nM | 104 nM | 238 nM | 246 nM | 150 nM |
| CACGAUGAAUUCUCUAGGAGUGAUGUUUUUCGAGGACCGGUACGGCCGCCACUCGGACGACGAGCGUGGUAGCGGCCUGAAGACU [,omullin] | 743 nM | 225 nM | 468 nM | 680 nM | 380 nM |
| CAGAUGUAGGCGGCCGCCACUCUCAUUACCGUACGCAAGUAUGAUUAGAAGUGAUGUUUCUCGGUGAGGACCGGGCCAUUCCCGA [theeternabot_sameState_KL_Trp_B_27] | 690 nM | 551 nM | 670 nM | 672 nM | 545 nM |
| CAUACGCAUGGAGGAUAUGAGAUUUCUCAUGUCAUUUAAUAUUCUCAGUGAUGUUGAGAUUUUGGCUCAGAAGGCCAUGUGUAUG [Ex FMN B 19] | 176 nM | 249 nM | 281 nM | 297 nM | 273 nM |
| CAUACGCAUGGAGGAUAUGAGAUUUUUCAUAUUAUUUUUUAUUCUCAGUGAUGUUGGGAUUUAUAAUCAGAAGGCCAUGUGUAUG [Ex FMN B 11] | 88.4 nM | 79.2 nM | 84.9 nM | 94.7 nM | 88.9 nM |
| CAUAGACAAGUGAUGUUUGUCAUAACCGAAGGAGCGUCUUUAAAGACAGGUAGGUCGCGGAUUAAUUAAGUUAUUAUUCUUUUUA [JR_SSArginiA_Sub018] | 552 nM | 494 nM | 644 nM | 573 nM | 439 nM |
| CAUUAAACUCAAACUAUUGGGUUUACGUUCCGAGGACCGGUACGGCCGCCACUCGGUCGAUGCUAUACCAUACGAGUGAUGUUCG [theeternabot_sameState_KL_Trp_A_1] | 465 nM | 452 nM | 502 nM | 404 nM | 352 nM |
| CAUUCACGGCGAGUCGAAGUGAUGUUUCGGCGAGGACCGGUACGGCCGCCACUCGGAUAAAUAUAGCUUAUCACAUACACUUUCG [theeternabot_exclusion_KL_Trp_A_27] | 159 nM | 128 nM | 140 nM | 186 nM | 132 nM |
| CCAAUCUGUUACGAUACCAGUCAAAGAUAUUUUAUCAAUGCCCUCACCGAGUGAUGUUCGGACCCUUGGCAGCGUCUGGGAUAGG [ddfcmullin] | 165 nM | 142 nM | 186 nM | 165 nM | 149 nM |
| CCAAUCUUUUACGAUACCAGUCUAAUAUAUUUAAUCAAAACCCUCGCCGAGUGAUGUUCGGACCCUUGGCAGCGUUUGCGAGAGG [xssgstkmullin] | 656 nM | 365 nM | 543 nM | 452 nM | 424 nM |
| CCAUUCAUUUACGAUACCAGUCUAAUAUAUUUAAUCAAAACCCUCGCCGAGUGAUGUUCGGACCCUUGGCAGCGUCUGCGAGAGG [oookmullin] | 596 nM | 464 nM | 598 nM | 535 nM | 452 nM |
| CCAUUCUGUUACGAUACCAGUCUAAUAUAUUUGAUCAAUACCCUCGCCGAGUGAUGUUCGGACCCUUGGCAGCGUCUGGGACAGG [bbybmullin] | 453 nM | 377 nM | 410 nM | 440 nM | 364 nM |
| CCCUAAAUAUGCAGUGAUGUUGCAACUGAUACCAGUAUCGAAAGAUACCCUUGGCAGCGGAAAACCGCUACGUAAUUUAAAAGGG [Ex Theophylline A K4 19] | 243 nM | 327 nM | 356 nM | 385 nM | 243 nM |
| CCGAAGAACCAGUGAUGUUGGUUGACUAGACAGGAUAUGAGCAACAUCAGAAGGGUCUGGCUUCGGGAGUGGGUUGCGCUGACCU [Onbizaes] | 283 nM | 259 nM | 616 nM | 296 nM | 576 nM |

| Sequence | apparent KD of K4 kissing-loop reporter (input ligand: FMN 200 uM) | apparent KD of K4 kissing-loop reporter (input ligand: arginine 13.2 mM) | apparent KD of K4 kissing-loop reporter (input ligand: none) | apparent KD of K4 kissing-loop reporter [1] | apparent KD of K4 kissing-loop reporter [2] |
| --- | --- | --- | --- | --- | --- |
| CCGCUACCCUCAGGAUAUUAAUAUGGAGUGAUGUUCUAUGUCCGAUGGCGGAAACGCCAUCGGGAAUAAGAAGGGAGGGUAGCGG | 189 nM | 261 nM | 482 nM | 313 nM | 329 nM |
| CCGGCCCAGCCGGAUACCAGUGCGCCGCAGGGAACGGCGGGCCCAGAGUGAUGUUCGGGACACCCUUGGCAGCCGCCUGGGUCCC [#2 Same State - Theophylline B Attempt #30 (HarryS)] | 618 nM | 364 nM | 669 nM | 355 nM | 435 nM |
| CCGGCCCAGCCGGAUACCAGUGCGCCGCAGGGAACGGCGGGCCCAGAGUGAUGUUCGGGACACCCUUGGCAGCCGCCUGGGUCCU [#2 Same State - Theophylline B Attempt #29 (HarryS)] | 850 nM | 662 nM | 718 nM | 767 nM | 864 nM |
| CCGGCCCGGCCGGAUACCAGUGCGCCGCUGGGAACCGCGGGCCCAGAGUGAUGUUCGGGACACCCUUGGCAGCCGCCUGGGUCGC [#2 Same State - Theophylline B Attempt #24 (HarryS)] | 398 nM | 140 nM | 247 nM | 217 nM | 240 nM |
| CCGUAUGUCCACUAUUGAGUGAUGUUCAAGCGAGGACCGGUACGGCCGCCACUCGCGUUACCCACCACGUGUCGCCGCACUUACC [theeternabot_exclusion_KL_Trp_A_42] | 203 nM | 160 nM | 203 nM | 159 nM | 370 nM |
| CCGUGGAGUGAUGUUCCACGUACUACGGAUACCAGCUUUGCCAAAGGCCCUUGGCAGCCGCACGUUGCAGUGAUGUUGUGGCGCG [Same State Theophylline A G9] | 345 nM | 241 nM | 327 nM | 328 nM | 299 nM |
| CCGUGGAGUGAUGUUCCACGUUCUACGGAUACCAGCCACGCCAGCGGCCCUUGGCAGCCGCACCUUGCAGUGAUGUUGUGAGGCU [Same State Theophylline A GF 5] | 365 nM | 312 nM | 349 nM | 330 nM | 302 nM |
| CCUUCUCUUGAUAGUGAUGUUAUCGAGGACAAGGAUAUCAUCUCAAUGAGAAGGUGUCCUUGAUAACAUGGAGGUCUGAAACAGA [Omei KL FMN A Exc C v9] | 205 nM | 355 nM | 439 nM | 427 nM | 454 nM |
| CCUUUCUGUUACGAUACCAGUCUAAUAUAUUUGAUCAAUACCCUCGCCGAGUGAUGUUCGGACCCUUGGCAGCGUCUGGGACAGG [aazwmullin] | 482 nM | 438 nM | 493 nM | 468 nM | 451 nM |
| CGAGAAAGAGCGACUGGCGAUCUGUCUGAAGGAGCGGGUGCUAGCCCAGGUAGGUCGCAGACUUUGACGCCAGUGAUGUUGGCGG [Titidiisxe] | 210 nM | 175 nM | 222 nM | 134 nM | 178 nM |
| CGAGUGAUGUUCGAAGAGUUGUUAAGCGAUACCAGCUAGGAAACUGGCCCUUGGCAGCGUAAUAAAUAAAUAAAUAAAUGAUCAC [whbob_Ex_Theo_A_th62] | 351 nM | 414 nM | 369 nM | 456 nM | 322 nM |
| CGCAGUGAUGUUGUGAUUAACUACAGGGAAGGAGCGUGCUAGAGCACAGGUAGGUCGCCCAGUGGCCGAGUGAUGUUCGGCGGGU [Same State Arginine A GF 27] | 237 nM | 189 nM | 227 nM | 250 nM | 188 nM |
| CGCCAGGGUGAAGGAUAUCCGUCUGAUUGAGCGCAGUGAUGUUGCGCGAUUCGUUCAUCGCUCGGAGGAGAAGGUCAGAUAACUC [theeternabot_sameState_KL_FMN_B_3] | 127 nM | 121 nM | 121 nM | 121 nM | 112 nM |
| CGCCGUAAGGCGAGCGCUCCCACUCCGGAAGGAGCGCCCGAAAGGGCAGGUAGGUCGCCGGAGUGAUGUUCCGGUGGAGGGCUCG [#2 Exclusion - Arginine A Attempt #28 (Inspired by Omei)] | 353 nM | 261 nM | 380 nM | 267 nM | 330 nM |
| CGCGCCCAGCCGGAUACCAGUGACCCGCUGGGAACCGCGGGCCCAGAGUGAUGUUCGGGACACCCUUGGCAGCCGCCUGGGCGAC [#2 Same State - Theophylline B Attempt #8 (HarryS)] | 993 nM | 378 nM | 1130 nM | 525 nM | 509 nM |
